Source: PMC10663602

Target: teleost IgM Fc (tFcµ): truncated teleost IgM heavy chain consisting of CHµ3, CHµ4 and the Tp (Oncorhynchus mykiss (rainbow trout))
Test: cryo-EM structure; purified tFcµ tetramer fractions in TBS (20 mM Tris-HCl, NaCl, pH 7.8), 0.1 mg/mL on grids; map at 2.78 Å, C2 symmetry

## teleost IgM Fc (tFcµ): truncated teleost IgM heavy chain consisting of CHµ3, CHµ4 and the Tp (domain or fragment)
  stoichiometry N: 4
